Experimental data reported in US20230416345A1, “NEW TYPE II COLLAGEN BINDING PROTEINS” (Navigo Proteins GmbH, priority 2020, published 2023).

Assays:
[1] = target: T1, hCol2 (human Type II collagen) (Homo sapiens, UniProt P02458); experiment: Binding analysis by SPR (Biacore 3000) vs human type II collagen; conditions: dimers or tetramers; Langmuir 1:1 model
T1 construct: purchased Chondrex
Protocol: (§1) Proteins with affinity tag were purified by affinity chromatography and size exclusion. After affinity chromatography purification using Strep-Tactin Superflow high capacity cartridges (IBA Lifesciences) a size exclusion chromatography (SEC) was performed using an Äkta system and a Superdex™ 200 HiLoad 16/600 column (Cytiva). Fused variants with Aflibercept were purified via MabSelect SuRe (Cytiva) affinity chromatography followed by a size exclusion chromatography (SEC) using an Äkta system and a Superdex™ 200 HiLoad 16/600 column (Cytiva). All chromatography processing steps were carried out on AKTA systems using matrices from Cytiva. Homogenous species of all purified ligands were obtained; no aggregation was detected. Following SOS-PAGE analysis positive fractions were pooled and their protein concentrations were measured. Further analysis included SOS-PAGE, SE-HPLC and RP-HPLC. Protein concentrations were determined by absorbance measurement at 280 nm using the molar absorbent coefficient. Reversed phase chromatography (RP-HPLC) was performed using a Dionex HPLC system and a PLRP-S (5 μm, 300 Å) column (Agilent). Analytic size exclusion chromatography (SE-HPLC) was performed using a Dionex HPLC system and a Superdex200 increase 5/150 GL (Cytiva). Binding of Collagen II was evaluated by SPR measurements using a Biacore 3000 system. Purified Collagen II was obtained from Chondrex.inc and VEGF-165 was obtained from Millipore. Targets were immobilized on a CM5-Sensor via NHS/EDC chemistry (immobilization level ˜1000 RU). Binding molecules were injected at different concentration and affinity was calculated by langmuir 1:1 binding model.
The purified proteins were immobilized on a CM-5 sensor chip (GE Healthcare) using NHS/EDC after PDEA activation resulting in 110-140 RU with a Biacore 3000 system (GE Healthcare). The chip was equilibrated with SPR running buffer (PBS 0.05% Tween pH 7.3). Upon binding, target analyte was accumulated on the surface increasing the refractive index. This change in the refractive index was measured in real time and plotted as response or resonance units versus time. The analytes were applied to the chip in serial dilutions with a flow rate of 30 μl/min. The association was performed for 120 seconds and the dissociation for 120 seconds. After each run, the chip surface was regenerated with 30 μl regeneration buffer (10 mM glycine pH 2.0) and equilibrated with running buffer.
Binding studies were carried out by the use of the BIAcore 3000 (GE Healthcare); data evaluation was operated via the BIAevaluation 3.0 software, provided by the manufacturer, using the Langmuir 1:1 model (RI=0). Evaluated dissociation constants (KD) were standardized against the immobilized protein and indicated. Shown is the change in refractive index measured in real time and plotted as response or resonance unit [RU] versus time [sec].

[2] = target: T2, human collagen type I (h Col I) (Homo sapiens, UniProt P02452+P08123); experiment: ELISA specificity vs human collagen type I; assay type: binding
T2 construct: purchased Sigma C5483-1MG
Protocol: High binding plates (Greiner, 781061) were immobilized with 2.5 μg/ml recombinant human collagen type II (h Col II, Chondrex, CHX-20051), rabbit collagen type II (rbCol II, prepared from rabbit eyes), porcine collagen type II (p Col II, prepared from porcine eyes), human collagen type I, (h Col I, Sigma, C5483-1MG), human collagen type V (h Col V, Abcam, ab7537), human collagen type III (h Col Ill, Abcam, ab7535) and 67B89 (domain of fibronectin, produced in E. coli) respectively over night at 4° C. ELISA-plates were washed 3 times with PBST (PBS+ 0.1% Tween) and blocked with 3% BSA/0.5% Tween/PBS 2 h at RT. After washing with PBST, dilution series of 1.1 μM to 7×10^−4 nM of dimers (CID 211999, CID 212000), dilution series of 100 nM to 7×10^−6 nM of tetramers (CID 212001 and CID 212704) and dilution series of 10 μM to 2 nM of dimer (CID 212705) were incubated on ELISA-plates 1 h at rt. Plates were washed with PBST and incubated with biotinylated anti-StrepTag-ab (Antikörper-online, ABIN1573895) with a dilution of 1:10.000 for 1 h at rt. The binding was visualized with a-rabbit-IgG-HRP (Sigma, A9169) with a dilution of 1:10.000 and as substrate TMB Plus von KEM EN TEC Diagnostic, Kat-Nr. 4395.

pig eye sections = experiment: Immunohistochemistry staining on pig eye sections; conditions: formalin-fixed paraffin-embedded pig eyes; 5 μM or 500 nM protein, 45 min
Protocol: Sections of formalin-fixed paraffin-embedded pig eyes were deparaffinated with xylol and rehydrated with a descending concentration series of ethanol. For antigen retrieval slices were incubated in TE-buffer, pH 9.0 for 5 min. at 110° C. After blocking of endogenous peroxidases with peroxidase blocking solution (Novolink Polymer™ Detection System, Leica, RE7140-K) slices were incubated with 5 μM or 500 nM of CID 211999 (dimer), CID 212000 (dimer), CID 212001 (tetramer) for 45 min at rt. Subsequently binding of proteins was detected with rabbit-anti-StrepTag-antibody (Genscript, A00026) at a dilution of 1:500 and Novolink Polymer™ Detection System. Anti-Collagen Type II antibody (Abcam, #ab34712) at a dilution of 1:10 served as positive control. Tissue slices were incubated with antibodies for 30 min. Washing steps were performed with TBS pH 7.6. For visualization, AEC-staining (Dako, K3461) was used and after washing with water, nuclei were stained with Mayers Hamalum solution (Merck, 1.09249.0500). Results see FIG. 5.

[3] = Soluble expression in Escherichia coli BL21(DE3); assay type: physicochemical; conditions: expression in E. coli BL21(DE3)
Protocol: Variants with affinity tag were expressed in Escherichia coli BL21(DE3) using a low copy plasmid system under regulation of a T7 promoter. Proteins were produced in soluble form after induction by lactose included in the medium (autoinduction medium). BL21 (DE3) competent cells were transformed with the expression plasmid, spread onto selective agar plates (kanamycin) and incubated overnight at 37° C. Precultures were inoculated from single colony in 3 ml 2×YT medium supplemented with 50 μg/ml kanamycin and cultured for 6 hours at 37° C. at 200 rpm in a conventional orbital shaker in culture tubes. […] Cultures were transferred to an orbital shaker and incubated at 30° C. and 200 rpm. Recombinant protein expression was induced by metabolizing glucose and subsequently allowing lactose to enter the cells. Cells were grown overnight for approx. 17 hours to reach a final OD600 of about 2-4. Before the harvest, the OD600 was measured, samples adjusted to 0.6/OD600 were withdrawn, pelleted and frozen at −20° C. To collect biomass cells were centrifuged at 12000×g for 15 min at 22° C. Pellets were weighed (wet weight). Cells were stored at −20° C. before processing.
as §1

T1 sequence (P02458 182-1241): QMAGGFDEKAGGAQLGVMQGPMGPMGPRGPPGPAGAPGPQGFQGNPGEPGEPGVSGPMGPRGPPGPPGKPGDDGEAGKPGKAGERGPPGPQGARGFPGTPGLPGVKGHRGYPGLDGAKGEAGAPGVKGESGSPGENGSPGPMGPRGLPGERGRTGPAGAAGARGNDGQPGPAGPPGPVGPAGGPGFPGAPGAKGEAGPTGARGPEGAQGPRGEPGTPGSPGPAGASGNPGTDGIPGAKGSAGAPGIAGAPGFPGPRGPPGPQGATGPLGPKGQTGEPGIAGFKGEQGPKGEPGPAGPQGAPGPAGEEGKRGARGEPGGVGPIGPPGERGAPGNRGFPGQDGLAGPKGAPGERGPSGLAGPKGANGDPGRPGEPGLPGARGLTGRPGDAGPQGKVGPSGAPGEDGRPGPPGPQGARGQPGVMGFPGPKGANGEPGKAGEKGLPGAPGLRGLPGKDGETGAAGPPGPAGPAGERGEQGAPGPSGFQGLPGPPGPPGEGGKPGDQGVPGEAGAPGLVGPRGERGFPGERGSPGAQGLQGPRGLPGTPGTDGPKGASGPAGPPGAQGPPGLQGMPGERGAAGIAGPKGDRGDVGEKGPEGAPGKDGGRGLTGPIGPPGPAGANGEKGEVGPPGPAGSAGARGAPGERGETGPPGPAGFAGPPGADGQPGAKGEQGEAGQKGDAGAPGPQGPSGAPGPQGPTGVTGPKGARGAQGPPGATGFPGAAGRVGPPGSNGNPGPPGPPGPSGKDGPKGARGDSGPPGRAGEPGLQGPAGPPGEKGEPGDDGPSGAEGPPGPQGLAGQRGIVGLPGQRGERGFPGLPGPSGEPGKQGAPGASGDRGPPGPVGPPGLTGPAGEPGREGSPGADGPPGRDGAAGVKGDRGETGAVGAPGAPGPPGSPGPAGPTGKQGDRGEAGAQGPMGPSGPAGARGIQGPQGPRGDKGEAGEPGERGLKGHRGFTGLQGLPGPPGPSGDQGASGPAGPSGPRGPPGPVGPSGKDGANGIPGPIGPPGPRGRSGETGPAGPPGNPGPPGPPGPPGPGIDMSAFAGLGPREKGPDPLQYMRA
T2 sequence (P02452 162-1218 limits assumed): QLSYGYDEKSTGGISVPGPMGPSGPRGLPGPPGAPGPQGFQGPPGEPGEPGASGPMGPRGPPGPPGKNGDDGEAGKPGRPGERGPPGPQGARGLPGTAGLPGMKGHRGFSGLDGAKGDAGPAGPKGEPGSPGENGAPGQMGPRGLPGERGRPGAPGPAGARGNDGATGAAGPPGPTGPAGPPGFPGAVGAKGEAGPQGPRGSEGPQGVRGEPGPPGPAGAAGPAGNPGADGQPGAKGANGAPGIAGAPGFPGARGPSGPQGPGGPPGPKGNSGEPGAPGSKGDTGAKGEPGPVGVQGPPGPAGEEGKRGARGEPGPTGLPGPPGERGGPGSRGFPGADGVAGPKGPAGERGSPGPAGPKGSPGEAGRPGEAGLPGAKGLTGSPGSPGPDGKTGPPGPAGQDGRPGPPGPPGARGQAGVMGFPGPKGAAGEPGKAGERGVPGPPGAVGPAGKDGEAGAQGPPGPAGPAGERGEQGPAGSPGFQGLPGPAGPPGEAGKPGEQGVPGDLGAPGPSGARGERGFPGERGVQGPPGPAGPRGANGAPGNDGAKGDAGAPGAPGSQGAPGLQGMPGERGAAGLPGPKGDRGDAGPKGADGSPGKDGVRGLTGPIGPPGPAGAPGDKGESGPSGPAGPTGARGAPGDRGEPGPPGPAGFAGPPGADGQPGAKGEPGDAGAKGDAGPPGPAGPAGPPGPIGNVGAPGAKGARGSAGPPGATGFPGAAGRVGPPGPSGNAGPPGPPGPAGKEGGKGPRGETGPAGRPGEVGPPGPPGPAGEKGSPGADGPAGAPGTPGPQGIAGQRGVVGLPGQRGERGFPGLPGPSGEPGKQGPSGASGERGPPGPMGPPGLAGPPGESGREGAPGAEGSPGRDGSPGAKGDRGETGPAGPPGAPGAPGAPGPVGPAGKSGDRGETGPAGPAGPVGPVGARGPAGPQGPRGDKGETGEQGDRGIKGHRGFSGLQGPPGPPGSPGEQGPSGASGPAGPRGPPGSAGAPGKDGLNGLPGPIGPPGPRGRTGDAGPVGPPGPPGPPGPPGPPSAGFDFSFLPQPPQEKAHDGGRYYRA
T2 sequence (P08123 80-1119 limits assumed): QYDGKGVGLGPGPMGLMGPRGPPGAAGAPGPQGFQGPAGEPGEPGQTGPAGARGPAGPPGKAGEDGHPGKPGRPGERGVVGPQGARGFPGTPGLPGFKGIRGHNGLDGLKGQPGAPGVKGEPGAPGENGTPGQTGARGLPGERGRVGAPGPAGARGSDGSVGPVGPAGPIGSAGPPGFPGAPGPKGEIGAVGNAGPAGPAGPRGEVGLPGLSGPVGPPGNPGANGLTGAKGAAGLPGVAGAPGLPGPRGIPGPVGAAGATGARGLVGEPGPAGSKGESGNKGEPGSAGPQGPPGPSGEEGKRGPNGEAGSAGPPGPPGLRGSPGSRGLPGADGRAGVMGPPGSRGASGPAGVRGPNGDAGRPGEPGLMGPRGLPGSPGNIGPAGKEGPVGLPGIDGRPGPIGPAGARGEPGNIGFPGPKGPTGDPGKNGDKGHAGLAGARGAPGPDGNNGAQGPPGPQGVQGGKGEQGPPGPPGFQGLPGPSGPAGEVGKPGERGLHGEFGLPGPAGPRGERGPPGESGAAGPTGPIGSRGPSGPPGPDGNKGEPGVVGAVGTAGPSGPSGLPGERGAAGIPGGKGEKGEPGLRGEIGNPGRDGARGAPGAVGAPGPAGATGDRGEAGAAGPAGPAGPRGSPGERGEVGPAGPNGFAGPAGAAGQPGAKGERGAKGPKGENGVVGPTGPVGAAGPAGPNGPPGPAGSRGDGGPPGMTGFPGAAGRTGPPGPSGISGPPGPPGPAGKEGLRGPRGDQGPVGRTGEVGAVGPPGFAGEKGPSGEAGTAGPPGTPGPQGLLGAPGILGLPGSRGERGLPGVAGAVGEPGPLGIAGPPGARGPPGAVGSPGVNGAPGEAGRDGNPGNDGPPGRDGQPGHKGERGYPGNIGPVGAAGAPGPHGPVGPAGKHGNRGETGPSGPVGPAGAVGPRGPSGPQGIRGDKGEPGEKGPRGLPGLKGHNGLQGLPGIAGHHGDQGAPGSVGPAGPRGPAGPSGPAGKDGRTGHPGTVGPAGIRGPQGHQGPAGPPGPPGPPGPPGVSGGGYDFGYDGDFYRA

B1: CID 212000: dimer of SEQ ID NO: 2 (dimer with linker between the monomers) (protein)
chain: IAAKFDEAQSAADSEILHLPNLTEQQRHYFRRWLSDDPSVSTHILTQAQHLNDDQAPKGGGGSGGGGSGGGGSGGGGSIAAKFDEAQSAADSEILHLPNLTEQQRHYFRRWLSDDPSVSTHILTQAQHLNDDQAPKSAWSHPQFEK
modifications: Col2 binding protein (dimer of 211261) (CID212000)
Which results are given for B1?
Affinity [SPR] vs hCol2 [1]: 180 nM; binding to type I collagen (ELISA) [2]: No unspecific binding; IHC staining of pig eye sections (pig eye sections): staining of retina, inner limiting membrane (arrow) and vitreous body of pig eye; Solubility Soluble expression [3]: 100%
